Assays:
biotin-Aβ1-20 [1] = target: T1, biotin-Aβ1-20 (UniProt P05067 672-691, not fully specified; biotin (site not stated)); assay: BIACORE
T1 construct: domain: Aβ1-20; BIACORE antigen standing for monomeric Aβ peptide; also called biotinylated-Aβ1-20
T1 peptide (looked up): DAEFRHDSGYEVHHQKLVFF

[2] = target: T2, biotinylated ADDL (bADDL) (UniProt P05067 672-713, N-terminal biotin); assay: BIACORE, bADDL as antigen; column IgG1 #2
T2 construct: domain: Aβ1-42; Soluble oligomers of Aβ1-42; also called bADDLs; biotinylated high molecular weight ADDL

[3] = target: T2, biotinylated ADDL (bADDL); assay: BIACORE, bADDL as antigen; column IgG1 #1
[4] = target: T2, biotinylated ADDL (bADDL); assay: BIACORE, bADDL as antigen; column Fab
[5] = target: T2, biotinylated ADDL (bADDL); assay: BIACORE, Fab fragment against bADDL
biotin-Aβ1-20 [6] = target: T1, biotin-Aβ1-20; assay: BIACORE, Fab fragment against biotinylated-Aβ1-20

B1: clone A3 humanized by veneering, full IgG1 molecule (antibody, V domains shown)
VH: QVTLKESGPGLLKPTQTLTLTCTLSGFSLSTSGMGVGWFRQPPGKGLEWLAHIWWDDDKSYNPSLKSRLTISKDTSKNQVVLTITNVDPVDTATYYCARRQLGTRGTDAMDYWGQGTTVTVSS
VL: DVVMTQTPLSLPVTPGQPASISCRSSQSILHSNGNTYLEWYLQKPGQSPQLLIYKVSNRFSGVPDRFSGSGSGTDFTLKISRVEAEDVGVYYCLQTTRVPLTFGQGTKLEIK
notes: also called Hu20C2A3 IgG1/kappa version
B1: binds (biotin-Aβ1-20 [1]).

B2: 20C2-6A IgG1 (antibody, V domains shown)
VH: QVTLKESGPALVKPTQTLTLTCTFSGFSLSTSGMGVGWIRQPPGKALEWLAHIWWDDDKSYNPSLKSRLTISKDTSKNQVVLTMTNMDPVDTATYYCARRQLGLRSIDAMDYWGQGTTVTVSS
VL: DVVMTQSPLSLPVTPGEPASISCRSSQSILHSNGNTYLEWYLQKPGQSPQLLIYKVSNRFSGVPDRFSGSGSGTDFTLKISRVEAEDVGVYYCFQSSRVPLTFGQGTKLEIK
notes: IgG1 humanized A version; also called 4P1-22
In the case of B2, the Kd [2] is reported as 0.024 nM and the Kd [3] is reported as 0.0043 nM.

B3: 20C2-1A IgG1 (antibody, V domains shown)
VH: QVTLKESGPALVKPTQTLTLTCTFSGFSLSTSGMGVGWIRQPPGKALEWLAHIWWDDDKSYNPSLKSRLTISKDTSKNQVVLTMTNMDPVDTATYYCARRQLGLRSIDAMDYWGQGTTVTVSS
VL: DVVMTQSPLSLPVTPGEPASISCRSSQSILHSNGNTYLEWYLQKPGQSPQLLIYKVSNRFSGVPDRFSGSGSGTDFTLKISRVEAEDVGVYYCFQASRVPLTFGQGTKLEIK
notes: IgG1 humanized A version; also called SJ-p2-60
B3 gave a Kd [3] of 0.075 nM.

B4: 20C2-2A IgG1 (antibody, V domains shown)
VH: QVTLKESGPALVKPTQTLTLTCTFSGFSLSTSGMGVGWIRQPPGKALEWLAHIWWDDDKSYNPSLKSRLTISKDTSKNQVVLTMTNMDPVDTATYYCARRQLGLRSIDAMDYWGQGTTVTVSS
VL: DVVMTQSPLSLPVTPGEPASISCRSSQSILHSNGNTYLEWYLQKPGQSPQLLIYKVSNRFSGVPDRFSGSGSGTDFTLKISRVEAEDVGVYYCFQATRVPLTFGQGTKLEIK
notes: IgG1 humanized A version; also called SJ-p1-18
Work on B4 yielded a Kd [2] of 0.0003 nM and a Kd [3] of 0.015 nM.

B5: 20C2-3A IgG1 (antibody, V domains shown)
VH: QVTLKESGPALVKPTQTLTLTCTFSGFSLSTSGMGVGWIRQPPGKALEWLAHIWWDDDKSYNPSLKSRLTISKDTSKNQVVLTMTNMDPVDTATYYCARRQLGLRSIDAMDYWGQGTTVTVSS
VL: DVVMTQSPLSLPVTPGEPASISCRSSQSILHSNGNTYLEWYLQKPGQSPQLLIYKVSNRFSGVPDRFSGSGSGTDFTLKISRVEAEDVGVYYCFQGSFIPGTFGQGTKLEIK
notes: IgG1 humanized A version; also called SJ-p3-16
For B5, the Kd [3] was 3.7 nM.

B6: 20C2-5A IgG1 (antibody, V domains shown)
VH: QVTLKESGPALVKPTQTLTLTCTFSGFSLSTSGMGVGWIRQPPGKALEWLAHIWWDDDKSYNPSLKSRLTISKDTSKNQVVLTMTNMDPVDTATYYCARRQLGLRSIDAMDYWGQGTTVTVSS
VL: DVVMTQSPLSLPVTPGEPASISCRSSQSILHSNGNTYLEWYLQKPGQSPQLLIYKVSNRFSGVPDRFSGSGSGTDFTLKISRVEAEDVGVYYCFQSSFVPLTFGQGTKLEIK
notes: IgG1 humanized A version; also called SJ-p2-1F
Binder B6 has a Kd [2] of 0.068 nM and a Kd [3] of 0.317 nM.

B7: 20C2-6B IgG1 (antibody, V domains shown)
VH: QVTLKESGPALVKPTQTLTLTCTLSGFSLSTSGMGVGWIRQPPGKALEWLAHIWWDDDKSYNPSLKSRLTISKDTSKNQVVLTMTNMDPVDTATYYCARRQLGLRSIDAMDYWGQGTTVTVSS
VL: DVVMTQSPLSLPVTPGEPASISCRSSQSILHSNGNTYLEWYLQKPGQSPQLLIYKVSNRFSGVPDRFSGSGSGTDFTLKISRVEAEDVGVYYCFQSSRVPLTFGQGTKLEIK
notes: IgG1 humanized B version; also called 4P1-22
With B7 the Kd [3] was 0.053 nM.

B8: 20C2-8A IgG1 (antibody, V domains shown)
VH: QVTLKESGPALVKPTQTLTLTCTFSGFSLSTSGMGVGWIRQPPGKALEWLAHIWWDDDKSYNPSLKSRLTISKDTSKNQVVLTMTNMDPVDTATYYCARRQLGLRSIDAMDYWGQGTTVTVSS
VL: DVVMTQSPLSLPVTPGEPASISCRSSQSILHSNGNTYLEWYLQKPGQSPQLLIYKVSNRFSGVPDRFSGSGSGTDFTLKISRVEAEDVGVYYCLQTTRVPLTFGQGTKLEIK
notes: IgG1 humanized A version; also called SJ-p2-39
For B8, the Kd [2] was 0.0007 nM and the Kd [3] was 0.003 nM.

B9: 20C2-8B IgG1 (antibody, V domains shown)
VH: QVTLKESGPALVKPTQTLTLTCTLSGFSLSTSGMGVGWIRQPPGKALEWLAHIWWDDDKSYNPSLKSRLTISKDTSKNQVVLTMTNMDPVDTATYYCARRQLGLRSIDAMDYWGQGTTVTVSS
VL: DVVMTQSPLSLPVTPGEPASISCRSSQSILHSNGNTYLEWYLQKPGQSPQLLIYKVSNRFSGVPDRFSGSGSGTDFTLKISRVEAEDVGVYYCLQTTRVPLTFGQGTKLEIK
notes: IgG1 humanized B version; also called SJ-p2-39
Binder B9 has a Kd [2] of 0.0008 nM and a Kd [3] of 0.013 nM.

B10: 20C2-24A IgG1 (antibody, V domains shown)
VH: QVTLKESGPALVKPTQTLTLTCTFSGFSLSTSGMGVGWIRQPPGKALEWLAHIWWDDDKSYNPSLKSRLTISKDTSKNQVVLTMTNMDPVDTATYYCARRQLGLRSIDAMDYWGQGTTVTVSS
VL: DVVMTQSPLSLPVTPGEPASISCRSSQSILHSNGNTYLEWYLQKPGQSPQLLIYKVSNRFSGVPDRFSGSGSGTDFTLKISRVEAEDVGVYYCGQTTLVPLTFGQGTKLEIK
notes: IgG1 humanized A version; also called SJ-p2-44
Work on B10 yielded a Kd [3] of 0.114 nM.

B11: 20C2-2A Fab (Fab, V domains shown)
VH: QVTLKESGPALVKPTQTLTLTCTFSGFSLSTSGMGVGWIRQPPGKALEWLAHIWWDDDKSYNPSLKSRLTISKDTSKNQVVLTMTNMDPVDTATYYCARRQLGLRSIDAMDYWGQGTTVTVSS
VL: DVVMTQSPLSLPVTPGEPASISCRSSQSILHSNGNTYLEWYLQKPGQSPQLLIYKVSNRFSGVPDRFSGSGSGTDFTLKISRVEAEDVGVYYCFQATRVPLTFGQGTKLEIKR
Work on B11 yielded a Kd [4] of 28 nM.

B12: 20C2-5A Fab (Fab, V domains shown)
VH: QVTLKESGPALVKPTQTLTLTCTFSGFSLSTSGMGVGWIRQPPGKALEWLAHIWWDDDKSYNPSLKSRLTISKDTSKNQVVLTMTNMDPVDTATYYCARRQLGLRSIDAMDYWGQGTTVTVSS
VL: DVVMTQSPLSLPVTPGEPASISCRSSQSILHSNGNTYLEWYLQKPGQSPQLLIYKVSNRFSGVPDRFSGSGSGTDFTLKISRVEAEDVGVYYCFQSSFVPLTFGQGTKLEIKR
Binder B12 has a Kd [4] of 41 nM.

B13: 20C2-6A Fab (Fab, V domains shown)
VH: QVTLKESGPALVKPTQTLTLTCTFSGFSLSTSGMGVGWIRQPPGKALEWLAHIWWDDDKSYNPSLKSRLTISKDTSKNQVVLTMTNMDPVDTATYYCARRQLGLRSIDAMDYWGQGTTVTVSS
VL: DVVMTQSPLSLPVTPGEPASISCRSSQSILHSNGNTYLEWYLQKPGQSPQLLIYKVSNRFSGVPDRFSGSGSGTDFTLKISRVEAEDVGVYYCFQSSRVPLTFGQGTKLEIKR
In the case of B13, the Kd [4] is reported as 42 nM.

B14: Mouse-20C2 Fab (Fab, V domains shown)
VH: QVTLKESGPGILKPSQTLSLTCSLSGFSLSTSGMGVGWFRQPSGKGLEWLAHIWWDDDKSYNPSLKSRLTISKYTSRNQVFLTITSVDTADTATYYCARRQLGLRSIDAMDYWGQGTSVTVSS
VL: DVLMTQTPLSLPVSLGDQASISCRSSQSILHSNGNTYLEWYLQKPGQSPKLLIYKVSNRFSGVPDRFSGSGSGTDFTLKISRVEAEDLGVYYCFQGSLVPLTFGAGTKLELK
notes: Value in the Fab column of the row Mouse-20C2; also called murine 20C2
Binder B14 has a Kd [4] of 62 nM.

B15: Mouse-20C2 antibody (IgG1) (antibody, V domains shown)
VH: QVTLKESGPGILKPSQTLSLTCSLSGFSLSTSGMGVGWFRQPSGKGLEWLAHIWWDDDKSYNPSLKSRLTISKYTSRNQVFLTITSVDTADTATYYCARRQLGLRSIDAMDYWGQGTSVTVSS
VL: DVLMTQTPLSLPVSLGDQASISCRSSQSILHSNGNTYLEWYLQKPGQSPKLLIYKVSNRFSGVPDRFSGSGSGTDFTLKISRVEAEDLGVYYCFQGSLVPLTFGAGTKLELK
notes: value in the column IgG1 #1; also called murine 20C2
B15 gave a Kd [3] of 4.1 nM.

B16: 4a-A3 Fab (Fab, V domains shown)
VH: QVTLKESGPALVKPTQTLTLTCTLSGFSLSTSGMGVGWIRQPPGKALEWLAHIWWDDDKSYNPSLKSRLTISKDTSKNQVVLTMTNMDPVDTATYYCARRQLGTRGTDAMDYWGQGTTVTVSS
VL: DVVMTQSPLSLPVTPGEPASISCRSSQSILHSNGNTYLEWYLQKPGQSPQLLIYKVSNRFSGVPDRFSGSGSGTDFTLKISRVEAEDVGVYYCLQTTRVPLTFGQGTKLEIKR
B16 gave a Kd [5] of 0.0823 nM and a Kd (biotin-Aβ1-20 [6]) of 0.849 nM.

B17: 4b-A7 Fab (Fab, V domains shown)
VH: QVTLKESGPALVKPTQTLTLTCTLSGFSLSTSGMGVGWIRQPPGKALEWLAHIWWDDDKSYNPSLKSRLTISKDTSKNQVVLTMTNMDPVDTATYYCARRQLGKLALDAMDYWGQGTTVTVSS
VL: DVVMTQSPLSLPVTPGEPASISCRSSQSILHSNGNTYLEWYLQKPGQSPQLLIYKVSNRFSGVPDRFSGSGSGTDFTLKISRVEAEDVGVYYCLQTTRVPLTFGQGTKLEIKR
With B17 the Kd [5] was 0.376 nM and the Kd (biotin-Aβ1-20 [6]) was 1.72 nM.

B18: 4b-H11 Fab (Fab, V domains shown)
VH: QVTLKESGPALVKPTQTLTLTCTLSGFSLSTSGMGVGWIRQPPGKALEWLAHIWWDDDKSYNPSLKSRLTISKDTSKNQVVLTMTNMDPVDTATYYCARRQLGRRSVDAMDYWGQGTTVTVSS
VL: DVVMTQSPLSLPVTPGEPASISCRSSQSILHSNGNTYLEWYLQKPGQSPQLLIYKVSNRFSGVPDRFSGSGSGTDFTLKISRVEAEDVGVYYCLQTTRVPLTFGQGTKLEIKR
Binder B18 has a Kd [5] of 1.05 nM and a Kd (biotin-Aβ1-20 [6]) of 1.33 nM.

B19: 20C28B Fab (Fab, V domains shown)
VH: QVTLKESGPALVKPTQTLTLTCTLSGFSLSTSGMGVGWIRQPPGKALEWLAHIWWDDDKSYNPSLKSRLTISKDTSKNQVVLTMTNMDPVDTATYYCARRQLGLRSIDAMDYWGQGTTVTVSS
VL: DVVMTQSPLSLPVTPGEPASISCRSSQSILHSNGNTYLEWYLQKPGQSPQLLIYKVSNRFSGVPDRFSGSGSGTDFTLKISRVEAEDVGVYYCLQTTRVPLTFGQGTKLEIKR
B19 was tested, and the Kd [5] was 1.1 nM and the Kd (biotin-Aβ1-20 [6]) was 1.1 nM.

— patent US20070081998A1 (published 2007)
